Reference: publication PMC3960984 (Nature structural & molecular biology, 2012)
No end group written: not given here.

Target: human LRH-1 LBD (residues 299-541), loaded with DLPC (human, UniProt O00482 299-541)
Test: fluorescence polarisation

human LRH-1 LBD (residues 299-541), loaded with DLPC, sequence (O00482 299-541): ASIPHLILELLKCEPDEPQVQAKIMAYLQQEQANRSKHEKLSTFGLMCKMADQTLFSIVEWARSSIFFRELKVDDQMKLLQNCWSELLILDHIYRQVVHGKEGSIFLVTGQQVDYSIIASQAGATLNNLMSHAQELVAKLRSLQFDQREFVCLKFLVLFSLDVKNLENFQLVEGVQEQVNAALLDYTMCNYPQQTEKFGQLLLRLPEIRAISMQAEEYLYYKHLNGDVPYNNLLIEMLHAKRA

Binding result, binds:
EEPSLLKKLLLAPA (also: fluorescein label, position not given here) [fluorescein labeled peptide derived from human PGC-1α NR Box 2]
SPSSHSSLTERHKILHRLLQEGSP (also: fluorescein label, position not given here) [fluorescein labeled peptide derived from SRC-1 NR Box 2]
PVSPKKKENALLRYLLDKDDT (also: fluorescein label, position not given here) [fluorescein labeled peptide derived from TIF2 NR Box 3]
